# Legend:
# [1] = target: GST-CA-Rac1 (constitutively-active Rac1 fused to GST) (UniProt P63000); experiment: pull-down; GST fusion (GST-RacWT, GST-CA-Rac1 or GST-alone) on glutathione-agarose beads; 550-1000 ug total lysate of HP cells, unstimulated or treated with TGFβ1 (10 ng/mL) up to 60 min; 2 h at 4 °C; three washes; immunoblot for Trio or CdGAP (LiCor)
# [2] = target: GST-Rac1 (wild type Rac1 fused to GST) (UniProt P63000); experiment: as above
# Sequence of CdGAP (Q2M1Z3 whole entry): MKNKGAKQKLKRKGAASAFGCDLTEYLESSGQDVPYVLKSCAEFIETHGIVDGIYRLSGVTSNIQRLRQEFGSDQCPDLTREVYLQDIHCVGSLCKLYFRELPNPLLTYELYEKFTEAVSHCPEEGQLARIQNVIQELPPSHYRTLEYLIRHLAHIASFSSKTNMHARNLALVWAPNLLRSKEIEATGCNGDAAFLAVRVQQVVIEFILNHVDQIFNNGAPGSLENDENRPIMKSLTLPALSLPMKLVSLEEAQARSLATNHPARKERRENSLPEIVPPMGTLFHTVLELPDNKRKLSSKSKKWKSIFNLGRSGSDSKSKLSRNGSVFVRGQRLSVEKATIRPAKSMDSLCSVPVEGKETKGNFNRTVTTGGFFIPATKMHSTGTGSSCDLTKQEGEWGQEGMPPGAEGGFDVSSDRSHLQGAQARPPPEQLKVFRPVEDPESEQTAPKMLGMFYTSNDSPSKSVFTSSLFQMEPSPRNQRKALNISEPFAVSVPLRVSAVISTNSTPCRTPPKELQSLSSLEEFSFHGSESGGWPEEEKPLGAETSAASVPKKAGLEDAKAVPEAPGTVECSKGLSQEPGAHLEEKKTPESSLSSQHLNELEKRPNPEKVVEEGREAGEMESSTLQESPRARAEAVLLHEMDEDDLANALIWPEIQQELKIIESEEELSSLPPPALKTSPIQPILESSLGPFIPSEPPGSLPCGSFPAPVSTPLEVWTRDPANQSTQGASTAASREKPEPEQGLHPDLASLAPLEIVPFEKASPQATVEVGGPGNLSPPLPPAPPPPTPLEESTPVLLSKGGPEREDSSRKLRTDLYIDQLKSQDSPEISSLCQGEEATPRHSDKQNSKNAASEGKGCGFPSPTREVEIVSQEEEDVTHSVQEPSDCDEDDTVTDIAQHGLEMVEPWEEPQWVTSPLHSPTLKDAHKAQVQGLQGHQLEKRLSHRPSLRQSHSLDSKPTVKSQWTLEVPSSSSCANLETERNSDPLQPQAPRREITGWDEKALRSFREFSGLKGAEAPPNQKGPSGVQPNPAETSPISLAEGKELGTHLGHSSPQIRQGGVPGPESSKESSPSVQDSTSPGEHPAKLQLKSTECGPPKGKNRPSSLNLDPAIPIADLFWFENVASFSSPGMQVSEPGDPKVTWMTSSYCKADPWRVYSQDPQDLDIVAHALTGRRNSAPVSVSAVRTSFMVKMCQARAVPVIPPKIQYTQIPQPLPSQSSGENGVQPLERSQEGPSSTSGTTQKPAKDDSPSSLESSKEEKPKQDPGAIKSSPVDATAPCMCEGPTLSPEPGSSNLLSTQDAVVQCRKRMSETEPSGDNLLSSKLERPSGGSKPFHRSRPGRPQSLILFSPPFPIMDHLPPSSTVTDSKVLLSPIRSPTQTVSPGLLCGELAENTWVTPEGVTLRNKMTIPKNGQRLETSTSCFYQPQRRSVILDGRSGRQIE
"fold change of CdGAP pulled down by GST-CA-Rac1, 30 min TGFβ1 against 0 min [1]","fold change of CdGAP pulled down by GST-CA-Rac1, 45 min TGFβ1 against 0 min [1]","fold change of CdGAP pulled down by GST-CA-Rac1, 60 min TGFβ1 against 0 min [1]","fold change of Trio bound to GST-Rac1, 45 min TGFβ1 against unstimulated [2]",Substance
1.55 fold,1.56 fold,1.53 fold,,CdGAP (from UniProt Q2M1Z3 1-1444) (natural protein)
,,,1.82 fold,"Trio, O75962 1-3097 (natural protein; other documents disagree on this pair)"
